According to PMC2114503:
Where two headings read alike, the source gives them in different places.

How the values were obtained:
Test in all cases: co-sedimentation
[1] = target: rabbit skeletal muscle actin (rabbit) (UniProt P68135)
[2] = target: rabbit skeletal muscle actin (rabbit) (UniProt P68135); remark: listed apart in the source
[3] = target: rabbit skeletal muscle actin (rabbit) (UniProt P68135); remark: listed apart in the source
[4] = target: rabbit skeletal muscle actin (rabbit) (UniProt P68135); settings: scale: molecules of actin per molecule of the 30,000-D protein
[5] = target: rabbit skeletal muscle actin (rabbit) (UniProt P68135); remark: listed apart in the source

Work on “Dictyostelium discoideum 30,000-D actin-binding protein (natural protein)” yielded a fraction of the 30,000-D protein co-sedimenting with actin [1] of 29%, a fraction of the 30,000-D protein co-sedimenting with actin [2] of 73% and a fraction of the 30,000-D protein co-sedimenting with actin [3] of 14%. The stoichiometry N [4] was 10.3, the fraction of the 30,000-D protein co-sedimenting with actin [5] was 99% and the stoichiometry N ([5]; scale: molecules of actin per molecule of the 30,000-D protein) was 9.5.
